In assay [1] the target is digested β-vignin (β-vignin incubated 30 h with the 6 d.a.i. germinating cowpea seed extract): 27 kDa core with the proteolytic products that stay with it (Vigna unguiculata (cowpea)). In words: SEC; Superdex 75 10/300 GL, 25 mM phosphate buffer pH 7.0, 150 mM NaCl; β-vignin digested 30 h with the 6 d.a.i. extract, 50 μg loaded; eluted fractions on SDS-PAGE (silver stained); digest not purified from the extract.

The target of assay [2] is native β-vignin, the vicilin (7S globulin) storage protein of cowpea (Vigna unguiculata) seeds (Vigna unguiculata (cowpea)). In words: SEC; Superdex 200 10/300 GL, 25 mM Tris-HCl pH 9.0, 150 mM or 300 mM NaCl; 50 μg β-vignin (0.5 mg/mL) loaded. In general terms: Size exclusion chromatography separates by hydrodynamic size, large species first.
Assay [3] shares this target. In words: SEC; Superdex 75 10/300 GL, 25 mM phosphate buffer pH 7.0, 150 mM NaCl, 0.5 mL/min; peak areas by Multiple Peak Fit; monomer to trimer.

In assay [1], “digested β-vignin (β-vignin incubated 30 h with the 6 d.a.i. germinating cowpea seed extract): 27 kDa core with the proteolytic products that stay with it (complex)” returned a percent monomer of 90.2% and a percent trimer of 9.8%.

In assay [2], “native β-vignin, the vicilin (7S globulin) storage protein of cowpea (Vigna unguiculata) seeds (natural protein)” registered a stoichiometry N of 3. In assay [3], this substance had a percent monomer of 80% and a percent trimer of 20%.

Broadly, the stoichiometry N is a count of units in the complex or per binding partner.

Source of the values: PMC8746429.
